Test results from US20240132578A1.

How the values were obtained:
Test in all cases: cell-based or functional assay
[1] = target: HIV-1 envelope glycoprotein (Env) of isolate MG RM-AG-011 (HIV-1)
[2] = target: HIV-1 Env of pseudovirus MGRM-D-012 (HIV-1)
[3] = target: HIV-1 Env of pseudovirus MGRM-F1-010 (HIV-1)
[4] = target: HIV-1 envelope glycoprotein (Env) of isolate MG RM-AG-013 (HIV-1)
[5] = target: HIV-1 Env of pseudovirus MGRM-D-011 (HIV-1)
[6] = target: HIV-1 NL43 envelope (Env) on pseudovirus (HIV-1)
[7] = target: HIV-1 envelope glycoprotein (Env) of isolate LAVI_C22 (HIV-1)
[8] = target: HIV-1 Env of isolate QH0692.42 (Acute), clade B (HIV-1)
[9] = target: HIV-1 Env of isolate SC422661.8 (Acute), clade B (HIV-1)
[10] = target: HIV-1 Env of pseudovirus MGRM-F1-017 (clade F) (HIV-1)
[11] = target: HIV-1 envelope glycoprotein (Env) of isolate 93IN905 (HIV-1)
[12] = target: HIV-1 envelope glycoprotein (Env) of isolate MGRM-C-019 (HIV-1)
[13] = target: HIV-1 Env of isolate MGRM-Chronic-B-003, clade B (HIV-1)
[14] = target: HIV-1 Env of isolate 92RW020 (clade A pseudovirus) (HIV-1)
[15] = target: HIV-1 MGRM-G-009 Env (pseudovirus) (HIV-1)
[16] = target: HIV-1 MGRM-AE-002 Env (pseudovirus) (HIV-1)
[17] = target: HIV-1 Env of isolate MGRM-G-019 (subtype G) (HIV-1)
[18] = target: HIV-1 Env of isolate 92RW009 (subtype A) (HIV-1)
[19] = target: HIV-1 Env of isolate MGRM-D-001 (HIV-1)

Chain of PGT-144 (4970_K22) (antibody) (VH): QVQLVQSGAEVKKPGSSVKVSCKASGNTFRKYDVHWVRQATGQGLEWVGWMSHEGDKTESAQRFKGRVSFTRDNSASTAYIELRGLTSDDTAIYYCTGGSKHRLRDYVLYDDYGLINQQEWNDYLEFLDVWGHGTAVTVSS
Chain of PGT-144 (4970_K22) (antibody) (VL): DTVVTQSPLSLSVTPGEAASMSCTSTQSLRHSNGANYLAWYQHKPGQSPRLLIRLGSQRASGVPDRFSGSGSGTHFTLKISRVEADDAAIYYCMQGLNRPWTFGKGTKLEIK
Chain of 4995_P16 (PGT-145) (antibody) (VH): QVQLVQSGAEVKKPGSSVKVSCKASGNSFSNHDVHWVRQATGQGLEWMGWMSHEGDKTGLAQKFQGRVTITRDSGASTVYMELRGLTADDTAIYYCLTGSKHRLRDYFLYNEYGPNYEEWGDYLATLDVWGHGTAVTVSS
Chain of 4995_P16 (PGT-145) (antibody) (VL): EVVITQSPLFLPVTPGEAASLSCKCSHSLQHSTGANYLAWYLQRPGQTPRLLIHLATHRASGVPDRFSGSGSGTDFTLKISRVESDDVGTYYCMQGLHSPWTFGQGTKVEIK
Chain of PGT-141 (4964_G22; 4993_K13) (antibody) (VH): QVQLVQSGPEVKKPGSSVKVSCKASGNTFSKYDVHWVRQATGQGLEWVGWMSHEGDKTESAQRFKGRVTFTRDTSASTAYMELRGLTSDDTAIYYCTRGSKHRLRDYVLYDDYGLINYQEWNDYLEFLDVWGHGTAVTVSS
Chain of PGT-141 (4964_G22; 4993_K13) (antibody) (VL): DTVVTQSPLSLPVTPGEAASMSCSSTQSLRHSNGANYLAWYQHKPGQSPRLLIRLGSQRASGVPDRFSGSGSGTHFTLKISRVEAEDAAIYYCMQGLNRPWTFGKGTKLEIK
Chain of 4995_E20 (PGT-142) (antibody) (VH): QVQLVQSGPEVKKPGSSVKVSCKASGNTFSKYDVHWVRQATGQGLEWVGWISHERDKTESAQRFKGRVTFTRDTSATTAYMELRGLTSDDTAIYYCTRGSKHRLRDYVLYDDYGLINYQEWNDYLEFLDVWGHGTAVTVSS

## PGT-141 (4964_G22; 4993_K13) (antibody)
[1]
  IC50: 0.118 µg/mL
[2]
  IC50, pseudovirus neutralization: > 50 µg/mL
[3]
  IC50, pseudovirus neutralization: > 50 µg/mL
[4]
  IC50: > 50 µg/mL
[5]
  IC50, pseudovirus neutralization: > 50 µg/mL

## PGT-145 (4995_P16) (antibody)
[1]
  IC50: 0.003 µg/mL
[2]
  IC50, pseudovirus neutralization: > 50 µg/mL
[3]
  IC50, pseudovirus neutralization: 3.32 µg/mL
[4]
  IC50: 14.4 µg/mL
[5]
  IC50, pseudovirus neutralization: 14.7 µg/mL

## 1495_C14 (PGC14) (antibody)
[6]
  neutralization IC50: 0.373 µg/mL
[7]
  IC50 (µg/ml), pseudovirus neutralization: 25 µg/mL
[8]
  IC50 (µg/ml), pseudovirus neutralization: > 50 µg/mL
[9]
  IC50 (µg/ml), pseudovirus neutralization: > 50 µg/mL
[10]
  IC50: > 50 µg/mL
[11]
  IC50 (µg/ml), pseudovirus neutralization: 19 µg/mL
[12]
  IC50 (µg/ml), pseudovirus neutralization: 12 µg/mL
[13]
  IC50 (µg/ml), pseudovirus neutralization: > 50 µg/mL
[14]
  IC50 (µg/ml), pseudovirus neutralization: 46 µg/mL
[15]
  IC50 (µg/ml), pseudovirus neutralization: > 50 µg/mL
[16]
  IC50 (µg/ml), pseudovirus neutralization: > 50 µg/mL

## 2F5 (antibody)
[6]
  neutralization IC50: 2.41 µg/mL
[7]
  IC50 (µg/ml), pseudovirus neutralization: > 50 µg/mL
[8]
  IC50 (µg/ml), pseudovirus neutralization: 5.42 µg/mL
[9]
  IC50 (µg/ml), pseudovirus neutralization: > 50 µg/mL
[10]
  IC50: > 50 µg/mL
[11]
  IC50 (µg/ml), pseudovirus neutralization: > 50 µg/mL
[12]
  IC50 (µg/ml), pseudovirus neutralization: > 50 µg/mL
[13]
  IC50 (µg/ml), pseudovirus neutralization: 1 µg/mL
[14]
  IC50 (µg/ml), pseudovirus neutralization: 3.36 µg/mL
[15]
  IC50 (µg/ml), pseudovirus neutralization: 7.21 µg/mL
[16]
  IC50 (µg/ml), pseudovirus neutralization: 0.31 µg/mL

## VRC01 (antibody)
[1]
  IC50: 0.084 µg/mL
[17]
  IC50 (µg/mL), pseudovirus neutralization: 0.06 µg/mL
[2]
  IC50, pseudovirus neutralization: 0.216 µg/mL
[3]
  IC50, pseudovirus neutralization: 0.097 µg/mL
[18]
  IC50, pseudovirus neutralization: 0.187 µg/mL
[4]
  IC50: 0.197 µg/mL
[5]
  IC50, pseudovirus neutralization: 0.075 µg/mL
[19]
  IC50 (µg/mL), pseudovirus neutralization: > 50 µg/mL

## 4995_P16 (PGT-145) (antibody)
[17]
  IC50 (µg/mL), pseudovirus neutralization: 0.041 µg/mL
[18]
  IC50, pseudovirus neutralization: 0.026 µg/mL
[19]
  IC50 (µg/mL), pseudovirus neutralization: 0.56 µg/mL

## b12 (antibody)
[6]
  neutralization IC50: 0.06 µg/mL
[7]
  IC50 (µg/ml), pseudovirus neutralization: 7.64 µg/mL
[8]
  IC50 (µg/ml), pseudovirus neutralization: 0.73 µg/mL
[9]
  IC50 (µg/ml), pseudovirus neutralization: 6.11 µg/mL
[10]
  IC50: > 50 µg/mL
[11]
  IC50 (µg/ml), pseudovirus neutralization: 21.4 µg/mL
[12]
  IC50 (µg/ml), pseudovirus neutralization: > 50 µg/mL
[13]
  IC50 (µg/ml), pseudovirus neutralization: > 50 µg/mL
[14]
  IC50 (µg/ml), pseudovirus neutralization: > 50 µg/mL
[15]
  IC50 (µg/ml), pseudovirus neutralization: > 50 µg/mL
[16]
  IC50 (µg/ml), pseudovirus neutralization: 17.1 µg/mL

## PGT-144 (4970_K22) (antibody)
[1]
  IC50: 44.6 µg/mL
[2]
  IC50, pseudovirus neutralization: > 50 µg/mL
[3]
  IC50, pseudovirus neutralization: > 50 µg/mL
[4]
  IC50: > 40 µg/mL
[5]
  IC50, pseudovirus neutralization: > 50 µg/mL

## 4995_E20 (PGT-142) (antibody)
[17]
  IC50 (µg/mL), pseudovirus neutralization: 5.95 µg/mL
[18]
  IC50, pseudovirus neutralization: 0.006 µg/mL
[19]
  IC50 (µg/mL), pseudovirus neutralization: > 50 µg/mL
